In the domain aggregation screens of Martell et al. (2025):

Test: soluble fraction after stress (log2 fold change); higher = more stays soluble; pooled small domains, quantitative proteomics
Settings: stress: 75 degC
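Note: 20 min heating vs room temperature control held 20 min.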

Going from “HMKLPNSFGSIQKLSGNRRKPYRVVKTIGWDENGKQIRKTLGYYETRAKALQELALFNEKPYD” to “HMKLTALWTANPKISAPIYSEPSTQSKTLGRIYQGASVKVYSFDPEWAYINSSGVVGYVLRRHLE”, the “soluble fraction (log2)” value falls from -1.72 to -2.43.

Going from “HMKLTINIDAAHDGKTIKQLFAEKGYSLELIKKFKYDGAIEVNGERKTVRWVLREGDLLVLEAN” to “HMKLTNIQYETLKVVVESRAKIDEEEGITIKLEDIKKYIDQAISFTGLVGDDEDYKKLFADMEYRFKIQ”, the “soluble fraction (log2)” value falls from -2.42 to -2.96.

Compared with “HMKLVAAGYHQNRLLVLLGIQAEELQAKRLLASFDRFRGREATPKPPIHDSARRWLRDTYHHVMNQVPVEL”, “HMKMHKIIKERRLALNFTQEQVAKYLGVTTPAVNKWEKGISYPDISLLPALARLLDTDLNTLLSF” is lower in “soluble fraction (log2)” value: -1.59 for the first, -4.38 for the second.

First: HMKMLPAEVLTHPAVVALIERGAPTGSITPEEVRQASEDAAVEPRHLKALLAHLSALGISVQIP
Second: HMKMLSIQRREAIRALLLEKESITIAEVMEKFQISVETARRDFDALADEGFLNKVYGGATLKK
The “soluble fraction (log2)” value of the first is higher: -0.303 for the first, -1.68 for the second.

Going from “HMKMPNGYGSITKLSGKRRKPWRVRKTAGWELDAKTQKLKQTYINIGYYETRADAMSALVSYNEDP” to “HMKMQPVISQGVLYINNVTDVRTIEVFDISGRIVADAAASTTVNIAHLNEGPYIVKVTTVNGIESIKILNK”, the “soluble fraction (log2)” value falls from -1.01 to -2.5.

Compared with “HMKNAMTDIYLEEIKKILTKNEFLVYTLRELNNFSVQFITDNYDLSEKTIYNSVYRAKKKIDRHFT”, “HMKNDKLLIFMELKGISRTQLSKSTGIPASTLGRIINGDVQKIKAVYMEAIANALDTSIHTIFDV” is lower in “soluble fraction (log2)” value: -0.159 for the first, -1.6 for the second.

“HMKNDNIHMMASKINGIALEVGVLTPGMHPKNDLSEGEVGYIVTNLKTTREAKVGDTVTLAKKPAATPLPG” and “HMKNETFAITSEDAGKRLDVWLTNILGDYSRSYVERLVEQGNVTVGGKTVKAGYKLKAGDSVQVSIPGPK” are within 0.2 log units of each other in “soluble fraction (log2)” value: 0.322 for the first, 0.144 for the second.

Going from “HMKNISSEEDREKALSLGITQEFIDNKGRYFITVPNKPSNFKEQALNIQKEISEQIDTVINKRFEF” to “HMKNLDILTPKEIEVLNLVAKGYSNSKISKELDIAEVTVKKHIGSMFQKLDVKDRLSLALIL”, the “soluble fraction (log2)” value falls from 0.0903 to -0.591.

Going from “HMKNLKPSTEVILKELVKRYPDQTEFRKQQIVDVGQSFGYKGKDYGPIFDADNRVKIGTYDLAGLIVPLQR” to “HMKNLNVIDLSALRTLELKESSDWTLIQKRFKLLVKKYHPDMNAGSKQYEEKLKKITLAYTHLKKLF”, the “soluble fraction (log2)” value falls from 0.0472 to -2.67.

First: HMKNQQLFNIGDRFQVDGVAYRMEKLFPENGTVEVYNLGVGRHKTMSFEEILALWNSGKLLFEI
Second: HMKNSIKLDNFVGMSYDEVISNKEYDFNFVSAFEKTSDYEAGTIIGQTPAAEERVMVGTTVTLTVAQP
The “soluble fraction (log2)” value of the first is lower: -0.966 for the first, 0.491 for the second.

First: HMKNTADRVYENLFHMLVSGDYAPGDRIPSEHELKERFNVSRNTIRAALNRMNALGIIETRQGDGTYLKG
Second: HMKNTFGLTEREMEVLALIVDGLSNPEIAEKLFITRATAKAHVHSILQKLYVDDRTQAAVTAMREGL
The “soluble fraction (log2)” value of the first is higher: -0.472 for the first, -2.21 for the second.

First: HMKNTIPVPHIIGLSEQEARETLERAGLQLNVIKTEPNTKYESGQVTDTNPNEGIKVPKGTIVNVVLADS
Second: HMKNTLDAYIRYLSNFLSRNNYPEAEDLSFINARADQAYEVFLEARRGGVDVSTAEELAMIALMQGY
The “soluble fraction (log2)” value of the first is higher: -0.0118 for the first, -2.34 for the second.

Going from “HMKNVEEMILGKLKRKVSENLENASFEEIILVDAEKSVYKGIIKANYIEYYFRVNLSTGEVLSWKLK” to “HMKPAFTPYVVKVTADVLNVRSGPGTNYGITTKVKKGEAYTIVEEKNGWGKLKSGAGWISLEYTVK”, the “soluble fraction (log2)” value falls from -0.86 to -1.09.

First: HMKPALFSADELNRLYRYGLSLTGERDRAYDLLQTALEKYLRQSQAPANAMRYVRKIMHNQFIDDYR
Second: HMKPDWLSDGRLIPDEVMSHLRKIAVHAVEEMGYSPEDVIKILGLSRNTIYDWLKRFREHGYEGLDTKK
The “soluble fraction (log2)” value of the first is lower: -1.53 for the first, -0.957 for the second.

Going from “HMKPLAQQVNDYLAATRTSIATLANEIPGYSRPTISRYLAGKYDGDITTIEKLLAEWLAQRTG” to “HMKPNEYVSGETFPYLGKNYRLKVLHGSENSVRLKGGYFITTISNRDSQLSTVKSLLEDWYQTHADK”, the “soluble fraction (log2)” value rises from -0.832 to 0.043.

Going from “HMKPPTIELSYSEFIELVERGKVSKVIFSSDNYTLKGETVNGENFETVRPPFLEDNLSEILTIHKVPVSSE” to “HMKPSKTVYTTANLNLRNGASMSAAVYTSVSRGTALATTGRTTSGWTQITHRGRTLWASSKYLTTTTPP”, the “soluble fraction (log2)” value falls from -0.109 to -3.17.

First: HMKPSNRSYPTALRMEVIGIIRERYADFGPTLAGEKLAELHGIHLGRETIRQWMMAAGLWKDRR
Second: HMKPTVKVPNVVNLSLRNAQIQLQNYGLEVGSISYESSRFKNAVLRQSISEGSVVEKGTTINLVISDGL
The “soluble fraction (log2)” value of the first is higher: -1.09 for the first, -1.56 for the second.

Going from “HMKPVPPLNGTSLRDLALGYAGRYATTAARLKHYLQRKLRERGWGGEDEPDLDGLVARLVELGYVNDEVF” to “HMKQAINFSDLNSLEEGLGIAIRQKWNEVSINDVPEDKIELVEDWINNNRGKYKGINISIGSTY”, the “soluble fraction (log2)” value rises from -0.704 to 0.114.

“HMKQAVESAEAIFEEIARIKKLSLVKSEAEEIARKTGLQKFTIASQLLKNQHAYEMDESEIASLWDKKI” and “HMKQDFVYNGFVEAKGDDLMVQINYKGETYYVTEGESFGGFTVKSANKDKVVLSGQGGAETVLEFR” are within 0.2 log units of each other in “soluble fraction (log2)” value: -0.0597 for the first, -0.186 for the second.
